Target: the molecule itself
Assay: co-sedimentation

B1: apoA-IV 1‒70/K58E variant (domain or fragment, human)
chain: GPEVSADQVATVMWDYFSQLSNNAKEAVEHLQKSELTQQLNALFQDKLGEVNTYAGDLQEKLVPFATELHER
B1: binds.

From paper PMC12003865 (Scientific Reports, 2025)
